According to US20090208538A1 (ROCKEFELLER UNIVERSITY, published 2009):

What was measured:
[1] = target: HLA-A*0101 (human); assay: iTopia affinity
[2] = target: HLA-A*0101 (human); assay: iTopia off-rate
[3] = target: HLA-A*0101 (human); assay: iTopia net score
[4] = target: HLA-A*2402 (human); assay: iTopia net score;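 note: iScore from iTopia software combining peptide binding, affinity over a dilution series and off-rate after warming to body temperature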
[5] = target: HLA-A*2402 (human); assay: iTopia affinity;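 note: peptide binding to HLA-A*2402 measured in iTopia kit format across eight serial peptide dilutions, ED50 derived from the resulting titration curve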
[6] = target: HLA-A*2402 (human); assay: iTopia off-rate
[7] = target: T1, HLA-A*1501 (human); assay: iTopia affinity
T1 construct: possibly meant as HLA-B*1501

[8] = target: T1, HLA-A*1501; assay: iTopia net score
[9] = target: HLA-B*0801 (human); assay: iTopia net score
[10] = target: HLA-B*0801 (human); assay: iTopia affinity
[11] = target: T2, HLA-A*0201 (human); assay: iTopia binding;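 note: each peptide tested for binding to HLA-A2 molecules immobilized on plates, using a commercial screening kit run per its supplied protocol and reagents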
T2 construct: also called HLA-A2.1; HLA A2.1

[12] = target: T2, HLA-A*0201; assay: iTopia affinity;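 note: peptide affinity for plate-bound HLA-A2 molecules (iTopia system), with ED50 derived from an eight-point serial peptide dilution series run under binding assay conditions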
[13] = target: T2, HLA-A*0201; assay: iTopia off-rate;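 note: Half-life of peptide complexes with plate-bound HLA-A2, peptides loaded 18 h at 21 C, washed, then held at 37 C over several time points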
[14] = target: T2, HLA-A*0201; assay: iTopia net score;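 note: combined score from peptide binding, ED₅₀ and half-life of peptide complexes with plate-bound HLA-A2 molecules, computed by a proprietary formula in iTopia software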
[15] = target: HLA-A*1101 (human); assay: iTopia off-rate
[16] = target: HLA-A*1101 (human); assay: iTopia affinity;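 note: affinity derived from a titration of eight serial peptide dilutions, each run under the same conditions as the binding screen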
[17] = target: HLA-A*0301 (human); assay: iTopia affinity
[18] = target: HLA-A*0301 (human); assay: iTopia net score
[19] = target: HLA-A*0301 (human); assay: iTopia off-rate
[20] = target: HLA-A*1101 (human); assay: iTopia net score
[21] = target: HLA-B*0702 (human); assay: iTopia off-rate
[22] = target: HLA-B*0702 (human); assay: iTopia net score
[23] = target: HLA-B*0702 (human); assay: iTopia affinity

Binder | iScore [4] | ED50 [5] | t1/2 [6] | ED50 [7] | iScore [8] | iScore [9] | ED50 [10] | further results
SSPTTPPEY [cdr2 414-422 SSPTTPPEY] |  |  |  |  |  |  |  | ED50 [1]: 130 µM; t1/2 [2]: 0.96; iScore [3]: 0.05
QMLQSEHPF [cdr2 259-267 QMLQSEHPF] | 0.082 | 53 µM | 0.25 | 8.3 µM | 0.257 |  |  | 
EIDEQRTKY [cdr2 439-447 EIDEQRTKY] |  |  |  |  |  |  |  | ED50 [1]: 31 µM; t1/2 [2]: 1.26; iScore [3]: 0.107
TLLDRNTEL [cdr2 37-45 TLLDRNTEL] | 0.08 | 56 µM | 1.39 |  |  | 0.045 | 360 µM | 
EHLKKTVTM [cdr2 196-204 EHLKKTVTM] |  |  |  |  |  | 0.065 | 130 µM | 
LERQKRVTM [cdr2 211-219 LERQKRVTM] |  |  |  |  |  | 0.037 | 140 µM | 
LSLERQKRV [cdr2 209-217 LSLERQKRV] |  |  |  |  |  | 0.046 | 280 µM | binding vs positive control [11]: > 30%; ED50 [12]: 8.4 µM; t1/2 [13]: 1.25; iScore [14]: 0.139
SQSLLEEMF [cdr2 287-295 SQSLLEEMF] | 0.048 | 14 µM | 0.24 | 29 µM | 0.062 |  |  | 
VYDHVFAEK [cdr2 172-180 VYDHVFAEK] | 0.165 | 6.2 µM | 1.65 |  |  |  |  | t1/2 [15]: 0.7; ED50 [16]: 8.8 µM; ED50 [17]: 25 µM; iScore [18]: 0.048; t1/2 [19]: 0.36; iScore [20]: 0.146
LLEEMFLTV [cdr2 290-298 LLEEMFLTV] |  |  |  |  |  |  |  | binding vs positive control [11]: > 30%; ED50 [1]: 21 µM; ED50 [12]: 0.6 µM; t1/2 [13]: 5.9; t1/2 [2]: 0.27; iScore [14]: 0.815; iScore [3]: 0.063
ELYDLRQHF [cdr2 163-171 ELYDLRQHF] | 0.095 | 3.3 µM | 0.23 |  |  | 0.037 | 340 µM | binding vs positive control [11]: > 30%; ED50 [12]: 2.7 µM; t1/2 [13]: 0.55; iScore [14]: 0.132
AVKQRGISL [cdr2 337-345 AVKQRGISL] | 0.13 | 20 µM | 1.6 | 15 µM | 0.16 | 0.139 | 22 µM | t1/2 [21]: 1.18; iScore [22]: 0.293; ED50 [23]: 2.4 µM

Now from value to binder, other results behind:

iScore [4] | ED50 [5] | t1/2 [6] | ED50 [7] | iScore [8] | iScore [9] | ED50 [10] | Binder | further results
 |  |  | 7.6 µM | 0.181 |  |  | TQYSALKVK [cdr2 351-359 TQYSALKVK] | t1/2 [15]: 0.76; ED50 [16]: 2.8 µM; ED50 [17]: 7.5 µM; iScore [18]: 0.27; t1/2 [19]: 1.48; iScore [20]: 0.276
 |  |  |  |  | 0.054 | 240 µM | CIKKTKQEI [cdr2 432-440 CIKKTKQEI] | 
 |  |  | 8.3 µM | 0.053 |  |  | ALFKEIFSC [cdr2 424-432 ALFKEIFSC] | binding vs positive control [11]: > 30%; ED50 [12]: 30 µM; t1/2 [13]: 18.7; iScore [14]: 0.546
 |  |  | 51 µM | 0.062 |  |  | AVQTSRAAA [cdr2 378-386 AVQTSRAAA] | t1/2 [21]: 0.9; iScore [22]: 0.153; ED50 [23]: 11 µM
